Kd data for 4 molecules are collected here from patent publication US20260285972 (published 2026).

T1: recombinant human GPRC5D-Flag-His (human, UniProt Q9NZD1)
T1 chain: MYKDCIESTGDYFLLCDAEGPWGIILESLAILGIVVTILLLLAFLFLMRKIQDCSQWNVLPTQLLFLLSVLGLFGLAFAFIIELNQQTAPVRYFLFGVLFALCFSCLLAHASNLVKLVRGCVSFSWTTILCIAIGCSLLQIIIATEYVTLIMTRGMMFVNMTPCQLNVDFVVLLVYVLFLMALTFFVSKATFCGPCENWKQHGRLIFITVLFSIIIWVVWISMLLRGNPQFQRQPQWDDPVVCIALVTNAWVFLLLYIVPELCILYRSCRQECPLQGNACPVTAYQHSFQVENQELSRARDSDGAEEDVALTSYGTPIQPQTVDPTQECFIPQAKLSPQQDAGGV

B1: 22Mono5UQY (antibody, V domains shown)
VH: QVQLQESGPGLVKPSETLSLTCTASGYPFTNYWMHWVRQPPGKGLEWIGEINPSNGRTNYNEKFKSRATLSLDKSKNQASLNLDSVSAADTAIYYCARGFAYWGKGSTVTVSS
VL: AIQLTQSPSSLSASVGDRVTITCSASSSVSFMHWYQQKPGKAPKRWIYDTTKLASGVPSRFSGSGSGTDYTFTISSLQPEDIATYYCQQWNSHPLTFGPGTKVDIK
modifications: Flag-His tag, ACRO GPD-H52D3
B2: 22Mono3L7F (antibody, V domains shown)
VH: EVTLKESGPVLVKPTETLTLTCTASGYPFTNYWMHWVRQPPGKALEWIGEINPSNGRTNYNEKFKSRATLSLDKSKSQAVLTMTNMDPVDTATYYCARGFAYWGQGTLVTVSS
VL: EIVLTQSPATLSLSPGERATLSCSASSSVSFMHWYQQKPGQAPRRWIYDTTKLASGIPARFSGSGSGTDYTLTISSLEPEDFAVYYCQQWNSHPLTFGQGTKLEIK
modifications: Flag-His tag, ACRO GPD-H52D3
B3: 22Mono4DN4 (antibody, V domains shown)
VH: ELVQSGAEVKKPGSSVKVSCKASGYPFTNYWMHWVRQAPGQGLEWIGEINPSNGRTNYNEKFKSRATLTLDKSTSTAYMELSSLRSEDTAVYYCARGFAYWGQGTLVTVSS
VL: EIVLTQSPATLSLSPGERATLSCSASSSVSFMHWYQQKPGQAPRRWIYDTTKLASGVPARFSGSGSGTDYTLTISSLEPEDFAVYYCQQWNSHPLTFGQGTKVEIK
modifications: Flag-His tag, ACRO GPD-H52D3
B4: 22Mono5JO4 (antibody, V domains shown)
VH: QVQLVQSGAEVKKPGSSVKVSCRASGYPFTNYWMHWVRQAPGQGLEWIGEINPSNGRTNYNEKFKSRATLTLDKLTSTAYMELSSLTSEDTALYYCARGFAYWGQGTLVTVSS
VL: EIVLTQSPGTLSLSPGERATLSCSASSSVSFMHWYQQKPGQAPRRWIYDTTKLASGIPDRFSGSGSGTDYTLTISRLEPEDFAVYYCQQWNSHPLTFGQGTTVEIK
modifications: Flag-His tag, ACRO GPD-H52D3

The assay has as its target T1, recombinant human GPRC5D-Flag-His. The experiment in a line: BLI.
For B1, the Kd came out at 5.67 nM.

In the case of B2, the Kd was 25.6 nM.

In the case of B3, the Kd was 16.9 nM.

For B4, the Kd came out at 0.787 nM.

Broadly, the Kd is a measure of binding affinity in units of concentration.
